{
  "source": "the supplement of paper PMC10567573",
  "parents": {"B1": {"name": "GAGE1 (parent)", "chain": "QPPEMIGPMRPEQFSDEVEPATPE"}},
  "data": [
    {"variants_of": "B1", "assay": "protein stability index of a GFP-peptide fusion (GPS, HEK-293T) (PSI 1-6); higher = more stable", "conditions": "c terminus: a fixed tail appended", "values": [
      {"variant": "QPPEMIGPMRPEQFSDHVEPATPE", "note": "[E17H]", "protein stability index": 5.56},
      {"variant": "QPPEMIGPMRPEQFSDCVEPATPE", "note": "[E17C]", "protein stability index": 4.91},
      {"variant": "QPPEMIGPMRPEQFSDNVEPATPE", "note": "[E17N]", "protein stability index": 5.01},
      {"variant": "QPPEMIGPMRPEQFSDWVEPATPE", "note": "[E17W]", "protein stability index": 4.85},
      {"variant": "QPPEMIGPMRPEQFSDAVEPATPE", "note": "[E17A]", "protein stability index": 5.08},
      {"variant": "QPPEMIGPMRPEQFSDTVEPATPE", "note": "[E17T]", "protein stability index": 5.08},
      {"variant": "QPPEMIGPMRPEQFSDIVEPATPE", "note": "[E17I]", "protein stability index": 4.89},
      {"variant": "QPPEMIGPMRPEQFSDFVEPATPE", "note": "[E17F]", "protein stability index": 4.86},
      {"variant": "QPPEMIGPMRPEQFSDVVEPATPE", "note": "[E17V]", "protein stability index": 4.96},
      {"variant": "QPPEMIGPMRPEQFSDDVEPATPE", "note": "[E17D]", "protein stability index": 4.85},
      {"variant": "QPPEMIGPMRPEQFSDQVEPATPE", "note": "[E17Q]", "protein stability index": 5.42},
      {"variant": "QPPEMIGPMRPEQFSDKVEPATPE", "note": "[E17K]", "protein stability index": 5.12},
      {"variant": "QPPEMIGPMRPEQFSDYVEPATPE", "note": "[E17Y]", "protein stability index": 4.05},
      {"variant": "QPPEMIGPMRPEQFSDGVEPATPE", "note": "[E17G]", "protein stability index": 5.16},
      {"variant": "QPPEMIGPMRPEQFSDPVEPATPE", "note": "[E17P]", "protein stability index": 4.73},
      {"variant": "QPPEMIGPMRPEQFSDRVEPATPE", "note": "[E17R]", "protein stability index": 5.34},
      {"variant": "QPPEMIGPMRPEQFSDMVEPATPE", "note": "[E17M]", "protein stability index": 5.16},
      {"variant": "QPPEMIGPMRPEQFSDSVEPATPE", "note": "[E17S]", "protein stability index": 5.44},
      {"variant": "QPPEMIGPMRPEQFSDLVEPATPE", "note": "[E17L]", "protein stability index": 5.04},
      {"variant": "QPPEMIGPMRPEHFSDEVEPATPE", "note": "[Q13H]", "protein stability index": 5.45},
      {"variant": "QPPEMIGPMRPEWFSDEVEPATPE", "note": "[Q13W]", "protein stability index": 5.36},
      {"variant": "QPPEMIGPMRPEAFSDEVEPATPE", "note": "[Q13A]", "protein stability index": 5.12},
      {"variant": "QPPEMIGPMRPEGFSDEVEPATPE", "note": "[Q13G]", "protein stability index": 5.78},
      {"variant": "QPPEMIGPMRPERFSDEVEPATPE", "note": "[Q13R]", "protein stability index": 5.58},
      {"variant": "QPPEMIGPMRPEDFSDEVEPATPE", "note": "[Q13D]", "protein stability index": 4.11},
      {"variant": "QPPEMIGPMRPEMFSDEVEPATPE", "note": "[Q13M]", "protein stability index": 4.96},
      {"variant": "QPPEMIGPMRPEPFSDEVEPATPE", "note": "[Q13P]", "protein stability index": 5.91},
      {"variant": "QPPEMIGPMRPEYFSDEVEPATPE", "note": "[Q13Y]", "protein stability index": 5.5},
      {"variant": "QPPEMIGPMRPEFFSDEVEPATPE", "note": "[Q13F]", "protein stability index": 5.02},
      {"variant": "QPPEMIGPMRPECFSDEVEPATPE", "note": "[Q13C]", "protein stability index": 5.59},
      {"variant": "QPPEMIGPMRPEVFSDEVEPATPE", "note": "[Q13V]", "protein stability index": 5.62},
      {"variant": "QPPEMIGPMRPESFSDEVEPATPE", "note": "[Q13S]", "protein stability index": 5.46},
      {"variant": "QPPEMIGPMRPEEFSDEVEPATPE", "note": "[Q13E]", "protein stability index": 4.65},
      {"variant": "QPPEMIGPMRPELFSDEVEPATPE", "note": "[Q13L]", "protein stability index": 5.64},
      {"variant": "QPPEMIGPMRPEKFSDEVEPATPE", "note": "[Q13K]", "protein stability index": 5.34},
      {"variant": "QPPEMIGPMRPETFSDEVEPATPE", "note": "[Q13T]", "protein stability index": 5.84},
      {"variant": "QPPEMIGPMRPEIFSDEVEPATPE", "note": "[Q13I]", "protein stability index": 5.6},
      {"variant": "QPPEMIGPMRPENFSDEVEPATPE", "note": "[Q13N]", "protein stability index": 5.33},
      {"variant": "QPPEMIGPMRPEQFSDESEPATPE", "note": "[V18S]", "protein stability index": 5.44},
      {"variant": "QPPEMIGPMRPEQFSDEDEPATPE", "note": "[V18D]", "protein stability index": 4.79},
      {"variant": "QPPEMIGPMRPEQFSDEEEPATPE", "note": "[V18E]", "protein stability index": 4.96},
      {"variant": "QPPEMIGPMRPEQFSDEQEPATPE", "note": "[V18Q]", "protein stability index": 5.35},
      {"variant": "QPPEMIGPMRPEQFSDELEPATPE", "note": "[V18L]", "protein stability index": 4.59},
      {"variant": "QPPEMIGPMRPEQFSDEAEPATPE", "note": "[V18A]", "protein stability index": 5.25},
      {"variant": "QPPEMIGPMRPEQFSDEIEPATPE", "note": "[V18I]", "protein stability index": 4.91},
      {"variant": "QPPEMIGPMRPEQFSDEWEPATPE", "note": "[V18W]", "protein stability index": 5.04},
      {"variant": "QPPEMIGPMRPEQFSDEFEPATPE", "note": "[V18F]", "protein stability index": 5.13},
      {"variant": "QPPEMIGPMRPEQFSDEREPATPE", "note": "[V18R]", "protein stability index": 4.85},
      {"variant": "QPPEMIGPMRPEQFSDEYEPATPE", "note": "[V18Y]", "protein stability index": 4.22},
      {"variant": "QPPEMIGPMRPEQFSDEMEPATPE", "note": "[V18M]", "protein stability index": 4.75},
      {"variant": "QPPEMIGPMRPEQFSDENEPATPE", "note": "[V18N]", "protein stability index": 5.32},
      {"variant": "QPPEMIGPMRPEQFSDEGEPATPE", "note": "[V18G]", "protein stability index": 4.72},
      {"variant": "QPPEMIGPMRPEQFSDETEPATPE", "note": "[V18T]", "protein stability index": 4.79},
      {"variant": "QPPEMIGPMRPEQFSDEPEPATPE", "note": "[V18P]", "protein stability index": 4.85},
      {"variant": "QPPEMIGPMRPEQFSDECEPATPE", "note": "[V18C]", "protein stability index": 4.78},
      {"variant": "QPPEMIGPMRPEQFSDEKEPATPE", "note": "[V18K]", "protein stability index": 5.12},
      {"variant": "QPPEMIGPMRPEQFSDEHEPATPE", "note": "[V18H]", "protein stability index": 5.26},
      {"variant": "QPPEMIGPMRPEQFSDEVKPATPE", "note": "[E19K]", "protein stability index": 4.42},
      {"variant": "QPPEMIGPMRPEQFSDEVMPATPE", "note": "[E19M]", "protein stability index": 4.83},
      {"variant": "QPPEMIGPMRPEQFSDEVNPATPE", "note": "[E19N]", "protein stability index": 5.06},
      {"variant": "QPPEMIGPMRPEQFSDEVAPATPE", "note": "[E19A]", "protein stability index": 5.03},
      {"variant": "QPPEMIGPMRPEQFSDEVSPATPE", "note": "[E19S]", "protein stability index": 5.18},
      {"variant": "QPPEMIGPMRPEQFSDEVLPATPE", "note": "[E19L]", "protein stability index": 4.04},
      {"variant": "QPPEMIGPMRPEQFSDEVWPATPE", "note": "[E19W]", "protein stability index": 4.75},
      {"variant": "QPPEMIGPMRPEQFSDEVTPATPE", "note": "[E19T]", "protein stability index": 5.17},
      {"variant": "QPPEMIGPMRPEQFSDEVFPATPE", "note": "[E19F]", "protein stability index": 4.95},
      {"variant": "QPPEMIGPMRPEQFSDEVGPATPE", "note": "[E19G]", "protein stability index": 4.86},
      {"variant": "QPPEMIGPMRPEQFSDEVHPATPE", "note": "[E19H]", "protein stability index": 5.04},
      {"variant": "QPPEMIGPMRPEQFSDEVVPATPE", "note": "[E19V]", "protein stability index": 4.09},
      {"variant": "QPPEMIGPMRPEQFSDEVRPATPE", "note": "[E19R]", "protein stability index": 3.98},
      {"variant": "QPPEMIGPMRPEQFSDEVPPATPE", "note": "[E19P]", "protein stability index": 4.43},
      {"variant": "QPPEMIGPMRPEQFSDEVIPATPE", "note": "[E19I]", "protein stability index": 5.05},
      {"variant": "QPPEMIGPMRPEQFSDEVCPATPE", "note": "[E19C]", "protein stability index": 4.62},
      {"variant": "QPPEMIGPMRPEQFSDEVDPATPE", "note": "[E19D]", "protein stability index": 5.25},
      {"variant": "QPPEMIGPMRPEQFSDEVYPATPE", "note": "[E19Y]", "protein stability index": 4.65},
      {"variant": "QPPEMIGPMRPEQFSDEVQPATPE", "note": "[E19Q]", "protein stability index": 5.33},
      {"variant": "QPPEMIGPMRPRQFSDEVEPATPE", "note": "[E12R]", "protein stability index": 5.71},
      {"variant": "QPPEMIGPMRPLQFSDEVEPATPE", "note": "[E12L]", "protein stability index": 5.8},
      {"variant": "QPPEMIGPMRPSQFSDEVEPATPE", "note": "[E12S]", "protein stability index": 5.5},
      {"variant": "QPPEMIGPMRPQQFSDEVEPATPE", "note": "[E12Q]", "protein stability index": 5.57},
      {"variant": "QPPEMIGPMRPNQFSDEVEPATPE", "note": "[E12N]", "protein stability index": 5.46},
      {"variant": "QPPEMIGPMRPYQFSDEVEPATPE", "note": "[E12Y]", "protein stability index": 5.51},
      {"variant": "QPPEMIGPMRPTQFSDEVEPATPE", "note": "[E12T]", "protein stability index": 5.58},
      {"variant": "QPPEMIGPMRPVQFSDEVEPATPE", "note": "[E12V]", "protein stability index": 5.83},
      {"variant": "QPPEMIGPMRPMQFSDEVEPATPE", "note": "[E12M]", "protein stability index": 5.15},
      {"variant": "QPPEMIGPMRPKQFSDEVEPATPE", "note": "[E12K]", "protein stability index": 5.15},
      {"variant": "QPPEMIGPMRPPQFSDEVEPATPE", "note": "[E12P]", "protein stability index": 5.73},
      {"variant": "QPPEMIGPMRPWQFSDEVEPATPE", "note": "[E12W]", "protein stability index": 4.88},
      {"variant": "QPPEMIGPMRPEQFSDEVEPACPE", "note": "[T22C]", "protein stability index": 4.97},
      {"variant": "QPPEMIGPMRPEQFSDEVEPAHPE", "note": "[T22H]", "protein stability index": 4.89},
      {"variant": "QPPEMIGPMRPEQFSDEVEPAAPE", "note": "[T22A]", "protein stability index": 4.6},
      {"variant": "QPPEMIGPMRPEQFSDEVEPAFPE", "note": "[T22F]", "protein stability index": 4.46},
      {"variant": "QPPEMIGPMRPEQFSDEVEPAGPE", "note": "[T22G]", "protein stability index": 5.15},
      {"variant": "QPPEMIGPMRPEQFSDEVEPADPE", "note": "[T22D]", "protein stability index": 5.43}
    ]}
  ]
}
